Data reported in patent publication US20180244796A1 (CARSGEN THERAPEUTICS, published 2018).
One block for each binder: values may come before it. Ends that are not written are not given here. muFc = mouse Fc fragment of vector pCMV-V5-muFc

What was measured:
[1] = target: T1, scFv-P1A6E-Fc (human, UniProt P01857-1 99-330 = IgG part, limits assumed); assay: ELISA, scFv-Fc against MSLT-R2-mFc; x axis con.(nM) [left panel]
T1 construct: domain: Fc fragment; scFv cloned NheI/BamHI into pCMV-V5-Fc, expressed in HEK-293F, protein A purified; also called P1A6E single chain antibody; antibody-Fc fusion protein scFv-P1A6E-Fc
T1 sequence (P01857 other isoform, or with tags, fused parts or gaps limits assumed): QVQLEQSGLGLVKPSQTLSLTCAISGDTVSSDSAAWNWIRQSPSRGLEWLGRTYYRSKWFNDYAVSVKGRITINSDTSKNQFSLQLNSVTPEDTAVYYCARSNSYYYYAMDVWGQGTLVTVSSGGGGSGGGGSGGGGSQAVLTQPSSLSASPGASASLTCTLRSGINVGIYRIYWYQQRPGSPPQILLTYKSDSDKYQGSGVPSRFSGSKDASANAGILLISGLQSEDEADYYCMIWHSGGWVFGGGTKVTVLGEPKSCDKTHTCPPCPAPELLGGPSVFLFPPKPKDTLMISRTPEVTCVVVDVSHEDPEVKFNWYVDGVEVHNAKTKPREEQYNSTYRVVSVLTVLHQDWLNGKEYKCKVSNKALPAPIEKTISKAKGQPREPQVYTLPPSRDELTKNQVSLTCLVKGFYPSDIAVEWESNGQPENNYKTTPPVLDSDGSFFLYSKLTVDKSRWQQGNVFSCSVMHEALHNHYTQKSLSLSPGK

[2] = target: T2, scFv-P3F2-Fc (human, UniProt P01857-1 99-330 = IgG part, limits assumed); assay: ELISA, scFv-Fc against MSLT-R2-mFc; x axis con.(nM) [right panel]
T2 construct: domain: Fc fragment; scFv cloned NheI/BamHI into pCMV-V5-Fc, expressed in HEK-293F, protein A purified; also called P3F2 single chain antibody; P3F2 single chain antibod
T2 sequence (P01857 other isoform, or with tags, fused parts or gaps limits assumed): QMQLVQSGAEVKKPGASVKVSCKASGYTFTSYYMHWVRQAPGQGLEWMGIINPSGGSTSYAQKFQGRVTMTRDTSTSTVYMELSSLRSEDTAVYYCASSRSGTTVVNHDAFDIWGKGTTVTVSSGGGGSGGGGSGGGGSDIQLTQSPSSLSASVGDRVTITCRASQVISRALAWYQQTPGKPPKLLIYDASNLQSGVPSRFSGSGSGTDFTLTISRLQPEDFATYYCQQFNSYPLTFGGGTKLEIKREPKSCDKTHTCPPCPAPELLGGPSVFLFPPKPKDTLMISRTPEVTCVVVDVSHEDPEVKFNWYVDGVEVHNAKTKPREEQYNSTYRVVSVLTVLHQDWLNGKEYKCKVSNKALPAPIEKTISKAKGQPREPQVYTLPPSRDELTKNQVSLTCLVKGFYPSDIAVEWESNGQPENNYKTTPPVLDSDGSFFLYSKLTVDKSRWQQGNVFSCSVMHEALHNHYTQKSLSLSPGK

[3] = target: T1, scFv-P1A6E-Fc; assay: ELISA, scFv-Fc against MSLT-R1-mFc; x axis con.(nM), the sheet does not say whose concentration [left panel]
[4] = target: T2, scFv-P3F2-Fc; assay: ELISA, scFv-Fc against MSLT-R1-mFc; x axis con.(nM), the sheet does not say whose concentration [right panel]
[5] = target: T1, scFv-P1A6E-Fc; assay: ELISA, scFv-Fc against MSLT-R3-mFc; x axis con.(nM) [left panel]
[6] = target: T2, scFv-P3F2-Fc; assay: ELISA, scFv-Fc against MSLT-R3-mFc; x axis con.(nM) [right panel]
[7] = target: T1, scFv-P1A6E-Fc; assay: ELISA on peptide-muFc fusion proteins
[8] = target: T2, scFv-P3F2-Fc; assay: ELISA on peptide-muFc fusion proteins
[9] = target: T1, scFv-P1A6E-Fc; assay: ELISA, scFv-Fc against MSTL-R1AB-mFc; x axis con.(nM), the sheet does not say whose concentration [left panel]
[10] = target: T2, scFv-P3F2-Fc; assay: ELISA, scFv-Fc against MSTL-R1AB-mFc; x axis con.(nM), the sheet does not say whose concentration [right panel]
[11] = target: T1, scFv-P1A6E-Fc; assay: ELISA, scFv-Fc against MSTL-R1A-mFc; x axis con.(nM), the sheet does not say whose concentration [left panel]
[12] = target: T2, scFv-P3F2-Fc; assay: ELISA, scFv-Fc against MSTL-R1A-mFc; x axis con.(nM), the sheet does not say whose concentration [right panel]
[13] = target: T1, scFv-P1A6E-Fc; assay: flow cytometry on PANC-1-MSLN cells, 20 ug/ml antibody, goat anti-human-FITC
Protocol: (§1) Each of antibodies scFv-P1A6E-Fc and scFv-P3F2-Fc was analyzed for binding ability to mesothelin at cell surface by Fluorescence Activated Cell Sorter (FACS) (Guava 8HT, supplied by Millipore).
(§2) 4) antibodies P1A6E and P3F2 to be tested were added into the two experimental groups, respectively, adding antibodies ss and C10 (purchased from Shanghai Rui Jin Biotechnology Co., Ltd.) were added into two positive control groups added as positive controls, and another control group is PBS blank control without antibody. The final concentration of each antibody was 20 μg/ml. 100 μl was added to each tube, and incubated in an ice bath for 45 minutes.

[14] = target: T2, scFv-P3F2-Fc; assay: as above
Protocol: as §1, §2

[15] = target: T1, scFv-P1A6E-Fc; assay: ELISA, scFv-Fc against MSTL-R1B-mFc; x axis con.(nM) [left panel]
[16] = target: T2, scFv-P3F2-Fc; assay: ELISA, scFv-Fc against MSTL-R1B-mFc; x axis con.(nM) [right panel]

- binding result [7]: no binding
- binding result [8]: no binding
Binder: YKKWELEACVDAALLATQMDRVNAIPFTYE (Fc fusion, not shown: mouse Fc fragment (muFc)) [mesothelin peptide R1J10-muFc fusion protein]

- binding result [9]: binds
- binding result [10]: binds
B4: human mesothelin region R1AB (296E-359L)-muFc fusion protein (Fc fusion)
chain: EVEKTACPSGKKAREIDESLIFYKKWELEACVDAALLATQMDRVNAIPFTYEQLDVLKHKLDEL
notes: not shown: mouse Fc fragment of vector pCMV-V5-muFc

- binding result [11]: binds
- binding result [12]: binds
B5: human mesothelin region R1A (296E-337D)-muFc fusion protein (Fc fusion)
chain: EVEKTACPSGKKAREIDESLIFYKKWELEACVDAALLATQMD
notes: as for B4

- binding result [13]: binds
- binding result [14]: binds
B6: human mesothelin on PANC-1-MSLN cells (other)
chain: APLADYKDDDDKEVEKTACPSGKKAREIDESLIFYKKWELEACVDAALLATQMDRVNAIPFTYEQLDVLKHKLDELYPQGYPESVIQHLGYLFLKMSPEDIRKWNVTSLETLKALLEVNKGHEMSPQVATLIDRFVKGRGQLDKDTLDTLTAFYPGYLCSLSPEELSSVPPSSIWAVRPQDLDTCDPRQLDVLYPKARLAFQNMNGSEYFVKIQSFLGGAPTEDLKALSQQNVSMDLATFMKLRTDAVLPLTVAEVQKLLGPHVEGLKAEERHRPVRDWILRQRQDDLDTLGLGLQGGIPNGYLVLDLSMQEALS
notes: also called mesothelin at cell surface

More lines, now with the values behind:

B1: human mesothelin region R2 (S391-Q486)-muFc fusion protein (Fc fusion)
chain: SLETLKALLEVNKGHEMSPQVATLIDRFVKGRGQLDKDTLDTLTAFYPGYLCSLSPEELSSVPPSSIWAVRPQDLDTCDPRQLDVLYPKARLAFQ
notes: as for B4
- binding result [1]: no binding (tested: last point between 100 and 1000 nM)
- binding result [2]: no binding (tested: last point between 100 and 1000 nM)

B2: human mesothelin region R1 (E296-T390)-muFc fusion protein (Fc fusion)
chain: EVEKTACPSGKKAREIDESLIFYKKWELEACVDAALLATQMDRVNAIPFTYEQLDVLKHKLDELYPQGYPESVIQHLGYLFLKMSPEDIRKWNVT
notes: also called region 1; not shown: mouse Fc fragment of vector pCMV-V5-muFc
- binding result [3]: binds
- binding result [4]: binds

B3: human mesothelin region R3 (N487-G581)-muFc fusion protein (Fc fusion)
chain: NMNGSEYFVKIQSFLGGAPTEDLKALSQQNVSMDLATFMKLRTDAVLPLTVAEVQKLLGPHVEGLKAEERHRPVRDWILRQRQDDLDTLGLGLQG
notes: as for B4
- binding result [5]: no binding (tested: last point between 100 and 1000 nM)
- binding result [6]: no binding (tested: last point between 100 and 1000 nM)

B7: human mesothelin region R1B (328D-369I)-muFc fusion protein (Fc fusion)
chain: DAALLATQMDRVNAIPFTYEQLDVLKHKLDELYPQGYPESVI-muFc
notes: as for B4
- binding result [15]: no binding (tested: last point just under 100 nM)
- binding result [16]: no binding (tested: last point just under 100 nM)
